In publication doi:10.1101/2023.12.11.571162, “Single molecule studies of the native hair cell mechanosensory transduction complex” (bioRxiv, 2023):

Tests used:
[1] = target: the molecule itself; assay: single molecule pull-down (SiMPull), photobleaching step counting; native complexes from mouse cochlea supernatant captured by mAb 8D1; labelled with 39G7 Fab-GFP or anti-LHFPL5 Fab-GFP; bleaching steps counted
[2] = target: the molecule itself; assay: single molecule pull-down (SiMPull), photobleaching step counting; purified recombinant PCDH15/LHFPL5 complex captured by mAb 8D1; labelled in separate experiments with 39G7 Fab-GFP or anti-LHFPL5 Fab-GFP; bleaching steps counted

B1: native protocadherin-15 (PCDH15) from mouse cochlea or utricle (natural protein)
chain: not shown
notes: protocadherin-15, mouse, endogenous in cochlea and utricle; also called native PCDH15; source: endogenous, cochlea or utricle of post-natal day 6 mice, detergent supernatant (1% C12M, 0.2% CHS)
stoichiometry N [1]: 2

B2: recombinant protocadherin-15 (PCDH15), Mus musculus, His-tagged construct co-expressed with LHFPL5 (natural protein)
chain: not shown
notes: Synthesised by Genscript, cloned into pEG BacMam; also called recombinant PCDH15; His-tagged PCDH15; source: HEK293 tsa201 cells, BacMam co-infection with LHFPL5, purified as a complex (Strep-Tactin, TALON, SEC) in digitonin
stoichiometry N [2]: 2
